The test has as its target T1, TDP-43 1-206 amino acid fragment, containing the RRM1 domain (Homo sapiens (Human), UniProt Q13148 1-206).
T1 construct: Spotted on membranes for the dot blot; also called amino acids 1-206 of TDP-43
Nature of the test: dot blot, scFv-conditioned medium, anti-myc HRP. On the procedure: Example 6: Anti-TDP-43 Antibodies Having an scFv Format Detect TDP-43 RRM1 Domain Different concentrations of TDP-43 1-206 amino acid fragment, containing the RRM1 domain were loaded onto membranes by dot blot. Membranes were incubated overnight with media from Hek293 cells that had been transfected with pScFv9 expression plasmid containing the nucleic acids encoding E6_VH1Vk9 and E6_VH7Vk9. The myc signal was detected using anti-myc HRP antibody incubation.

The text below walks through data of patent US10202443 (UNIVERSIT LAVAL, dated 2019).

T1 sequence (Q13148 1-206): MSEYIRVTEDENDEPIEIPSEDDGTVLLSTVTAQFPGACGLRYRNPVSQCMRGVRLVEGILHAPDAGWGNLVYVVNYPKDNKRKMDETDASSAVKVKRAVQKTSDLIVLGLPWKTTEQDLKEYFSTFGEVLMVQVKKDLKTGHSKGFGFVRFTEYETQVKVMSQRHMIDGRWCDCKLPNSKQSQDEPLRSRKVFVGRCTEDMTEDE

B1: E6_VH1Vκ9 scFv antibody (scFv)
scFv: LQESGGGLVQPGGSMKLSCVASGFTSSNYWLNWVRQSPERGLEWVAEIRLKSNNYATNYAESVKGRFTISRDDSKSSVYLQVNNLRAEDTGIYYCTRSTARATPYYFDYWGQGTTVTVSSGGGGSGGGGSGGGGSDIELTQSPSSLAVSAGEKVTMSCKSSQSLLNSRARKNFLTWYQQKPGQSPKLLIYWASTRESGVPDRFTGSGSGTDFTLTISSVQAEDLAVYYCKQSYNLYTFGGGTKLEEQKLISEEDLN
notes: The signal is left out here; Used as conditioned medium or inside transfected cells; also called E6_VH1Vk9; VH1Vk9
B1: the binding result is reported as “binds”.

B2: E6_VH7Vκ9 scFv antibody (scFv)
scFv: LQQSGGGLVQPGGSMKLSCVASGFTSSNYWLNWVRQSPERGLEWVAEIRLKSNNYATNYAESVKGRFTISRDDSKSSVYLQVNNLRAEDTGIYYCTRSTARATPYYFDYWGQGTTVTVSSGGGGSGGGGSGGGGSDIELTQSPSSLAVSAGEKVTMSCKSSQSLLNSRARKNFLTWYQQKPGQSPKLLIYWASTRESGVPDRFTGSGSGTDFTLTISSVQAEDLAVYYCKQSYNLYTFGGGTKLEEQKLISEEDLN
notes: The signal is left out here; It differs from E6_VH1Vκ9 by one residue (Q instead of E); also called E6_VH7Vk9; VH7Vk9
For the molecule B2, the binding result is listed as “binds”.
